Laboratory results from patent publication US20220089765A1, “CD31 COMPETITORS AND USES THEREOF” (ENCEFA, priority 2019, published 2022).

Experiments:
[1] = system: midbrain dopaminergic (TH+) neurons; assay: MPP+ intoxication model in midbrain cell cultures, survival of DA (TH+) neurons; format: cell-based, Wistar rat
Procedure: For this purpose, spontaneously occurring DA cell death was prevented by a treatment combining depolarizing concentrations of K^+ (30 mM) and MK801 (5 μM), a glutamate receptor antagonist used to prevent unwanted excitotoxic insult. The cultures were then exposed to 3 μM MPP between 5 and 7 days in vitro (DIV) to achieve a loss of approximately 50% of DA neurons.
Animals were treated in accordance with the Guide for the Care and Use of Laboratory Animals (National Research Council, 1996), European Directive 86/609, and the guidelines of the local institutional animal care and use committee. Cultures were prepared from the ventral mesencephalon of gestational age 15.5 Wistar rat embryos (Janvier Breeding Center, Le Genest St Isle, France). Dissociated cells in suspension obtained by mechanical trituration of midbrain tissue pieces were seeded at a density of 1.2-1.5×10^5 cells/cm^2 onto tissue culture supports precoated with 1 mg/mL polyethylenimine diluted in borate buffer pH 8.3 as described (Michel et al., 1997. J Neurochem. 69(4):1499-507). The cultures were then maintained in N5 medium supplemented with 5 mM glucose, 5% horse serum, and 0.5% fetal calf serum, except for the first 3 DIV, when the concentration of fetal calf serum was 2.5% to favor initial maturation of the cultures (Guerreiro et al., 2008. Mol Pharmacol. 74(4):980-9). They were fed daily by replacing 70% of the medium. Routinely, mesencephalic cultures were established on Nunc 24-well culture plates (Thermofischer Scientific, Rochester, N.Y.). Note that these cultures contain tyrosine hydroxylase (TH)^+ neurons that were exclusively dopaminergic (Traver et al., 2006. Mol Pharmacol. 70(1):30-40). TH^+ neurons represented approximately 1-2% of the total number of neuronal cells present in these cultures. The evaluation of the survival of DA neurons was performed by counting cells immunopositive for TH as described (Toulorge et al., 2011. Faseb J. 25(8):2563-73).
Treatments with MPP were performed in cultures where the spontaneous death process was prevented by long-term exposure to depolarizing concentrations of K^+ (30 mM), in the presence of the glutamate receptor antagonist MK801 (5 μM) to prevent unwanted excitotoxic insults as described previously (Douhou et al., 2001. J Neurochem. 78(1): 163-74). Treatments with MPP and potential neuroprotective molecules were carried out between 5 and 7 DIV.
The cultures were fixed for 12 min using 4% formaldehyde in Dulbecco's phosphate-buffered saline (PBS), then washed twice with PBS before an incubation step at 4° C. for 24 h with the following antibodies. A monoclonal anti-TH antibody diluted 1/5000 (ImmunoStar, Inc., Hudson, Wis.) was used to assess the survival of DA neurons. Antibody was diluted in PBS containing 0.2% Triton X-100. Detection of the primary antibodies was performed with an Alexa Fluor-488 conjugate of an anti-mouse IgG antibody.

[2] = system: Experimental Autoimmune Encephalomyelitis (EAE) mouse model; assay: EAE mouse model of multiple sclerosis, clinical score; format: in vivo, mice; conditions: 15 mg/kg iv at symptom onset (10 days after MOG injection) and at day 20
Excerpt: Multiple sclerosis (MS) is a progressive inflammatory and demyelinating disease of the human central nervous system (CNS) in which an important role for the immune system in the pathogenesis of the disease is suspected (Lassmann, 2008. J Neurol Sci. 274(1-2):45-7). EAE is an induced disease in mice that affects the central nervous system and constitutes a model for human MS. After a subcutaneous injection of an emulsion with a Complete Freund's Adjuvant (CFA) mixed with oligodendrocyte membrane proteins like myelin oligodendrocyte glycoprotein (MOG), an immune response starts in the periphery and, within 2 weeks, causes inflammation in the CNS. In the same time, we can observe, a progressive ascending paralysis (tail to hindlimb to forelimb). To determine whether B08 anti-CD38 antibody could have beneficial effect in this disease, we injected this antibody (15 mg/kg at symptom onset (10 days after MOG injection) and at day 20).
Animals were anesthetized via inhalation with isoflurane (15 min). Mouse were immunized by subcutaneous injection of an emulsion containing 100 μg MOG peptide 35-55 in Complete Freund's Adjuvant and 500 μg HKMT (Heat-killed Mycobacterium tuberculosis) on day 0. Two hours later, animals received an intraperitoneal injection of 500 ng of pertussis toxin on day 0 and day 2. […]
After immunization, animals were daily monitored for weight and clinical symptoms.

B1: Clone B08: anti-human CD38 antibody, HCVR SEQ ID NO: 33 and LCVR SEQ ID NO: 39 (antibody, V domains shown)
VH: EVQLVESGGSLVKPGGSLRLSCAASGFTFSNYYMNWVRQAPGKGLEWISSISGSSRSIYYADFVKGRFTISRDNAKNSLYLQMNSLRAEDTAVYYCVRSSDDYYYDYGMDVWGRGTLVTVSS
VL: QSVLTQPASVSGSPGQSITISCAGTSSDVGGSYSVSWYQQHPGKAPKLMIYDDSNRPSGVSNRFSGSKSGNTASLTISGLQAEDEADYYCSSYTDYSTRVFGGGTKL
modifications: HCVR B08; LCVR B08
In the case of B1, the “neuroprotective effect against MPP+-induced DA cell death, compared with reference clone HB7” value ([1]; 3 μM MPP+ between 5 and 7 DIV, each clone and HB7 0.5 μg/mL) is reported as “stronger neuroprotective effect”, the “neuroprotective effect in the presence of the lysosomal exocytosis inhibitor vacuolin-1” value ([1]; 3 μM MPP+, test substance 1 μg/mL, vacuolin-1 10 μM) is reported as “antagonized” and the “clinical score compared with PBS-injected mice” value [2] is reported as “significantly reduced”.
